These are literature values, as cited in patent US11749377B2, “Method and electronic system for predicting at least one fitness value of a protein, related computer program product” (PEACCEL, priority 2015, dated 2023).

The target in series [1] is T1, rat GLP-1 receptor (Rattus norvegicus, UniProt P32301).
T1 sequence (P32301 22-463): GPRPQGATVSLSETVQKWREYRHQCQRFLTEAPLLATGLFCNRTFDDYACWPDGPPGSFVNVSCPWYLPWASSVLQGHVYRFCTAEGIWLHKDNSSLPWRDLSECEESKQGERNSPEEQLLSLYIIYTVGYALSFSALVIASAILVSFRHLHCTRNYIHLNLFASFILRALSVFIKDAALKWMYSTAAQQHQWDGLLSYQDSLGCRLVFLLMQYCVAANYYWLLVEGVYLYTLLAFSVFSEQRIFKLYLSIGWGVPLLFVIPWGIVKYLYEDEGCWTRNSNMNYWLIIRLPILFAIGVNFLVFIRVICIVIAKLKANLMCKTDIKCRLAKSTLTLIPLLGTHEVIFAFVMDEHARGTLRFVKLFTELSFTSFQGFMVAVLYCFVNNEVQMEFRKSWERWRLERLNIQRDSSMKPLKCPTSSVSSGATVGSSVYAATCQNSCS
As to conditions: Log(IC50), binding affinity to rat GLP-1 receptor.

The target in series [2] is T2, GLP-1 receptor (Rattus norvegicus, UniProt P32301).
T2 sequence (P32301 22-463): T1 sequence (P32301 22-463)
The note with it: Log(EC50), adenylate cyclase activity.

Consider “GLP1 A2S: single mutant analog of human GLP1”, for which the logIC50 in series [1] was 0.3802. Moreover, the logEC50 in series [2] is listed as 0.301.

For “GLP1 A18R: single mutant analog of human GLP1”, the logIC50 in series [1] is given as −0.05061. In addition, the logEC50 in series [2] was 1.23.

With “GLP1 D9A: single mutant analog of human GLP1”, the logIC50 in series [1] was 1.041.

“GLP1 E3A: single mutant analog of human GLP1”: in series [1], the logIC50 is given as 0.9085. In series [2], the logEC50 is on record as 0.301.

Take “GLP1 E15A: single mutant analog of human GLP1”: in series [1], the logIC50 is recorded as 0.6128. In series [2], the logEC50 was 1.813.

As for “GLP1 F6A: single mutant analog of human GLP1”, the logIC50 in series [1] is listed as 1.5563. Moreover, the logEC50 in series [2] is on record as 1.519.

Consider “GLP1 F22A: single mutant analog of human GLP1”, for which, in series [1], the logIC50 is on record as 2.545. Besides, the logEC50 in series [2] is given as 3.415.

Regarding “GLP1 G4A: single mutant analog of human GLP1”, in series [1], the logIC50 is 1.771.

Take “GLP1 G16A: single mutant analog of human GLP1”: in series [1], the logIC50 is recorded as −0.2441. Also, in series [2], the logEC50 was 0.6021.

For “GLP1 G29A: single mutant analog of human GLP1”, in series [1], the logIC50 is recorded as 0.1139. Also, the logEC50 in series [2] is 0.

With “GLP1 I23A: single mutant analog of human GLP1”, the logIC50 in series [1] is recorded as 1.398. Further, in series [2], the logEC50 is on record as 1.8451.

For “GLP1 K20A: single mutant analog of human GLP1”, in series [1], the logIC50 was 0.1461. For the same substance, in series [2], the logEC50 was 1.114.

For “GLP1 K28A: single mutant analog of human GLP1”, the logIC50 in series [1] is listed as 0.2304. The logEC50 in series [2] was 0.301.

On to “GLP1 L14A: single mutant analog of human GLP1”, for which the logIC50 in series [1] is on record as 0.2304. The logEC50 in series [2] is given as 0.8451.

As for “GLP1 L26A: single mutant analog of human GLP1”, the logIC50 in series [1] is 0.6721. Also, in series [2], the logEC50 was 0.6021.

In the case of “GLP1 Q17A: single mutant analog of human GLP1”, the logIC50 in series [1] is reported as 0.04139. Further, in series [2], the logEC50 is listed as 0.699.

As for “GLP1 R30A: single mutant analog of human GLP1”, the logIC50 in series [1] is recorded as 0.6628. In addition, the logEC50 in series [2] was 0.8451.

With “GLP1 S8A: single mutant analog of human GLP1”, in series [1], the logIC50 is −0.1192. The logEC50 in series [2] is listed as 0.699.

For the substance “GLP1 S11A: single mutant analog of human GLP1”, the logIC50 in series [1] is recorded as −0.3372. In addition, the logEC50 in series [2] is given as 0.4771.

For “GLP1 S12A: single mutant analog of human GLP1”, in series [1], the logIC50 is −0.1675. The logEC50 in series [2] is given as 0.301.

In the case of “GLP1 T5A: single mutant analog of human GLP1”, the logIC50 in series [1] is given as 0.5441. In series [2], the logEC50 is 0.699.

In the case of “GLP1 T7A: single mutant analog of human GLP1”, the logIC50 in series [1] is reported as 1.5563. Also, in series [2], the logEC50 is on record as 1.813.

“GLP1 V10A: single mutant analog of human GLP1”: the logIC50 in series [1] is recorded as 0.2304. Also, the logEC50 in series [2] is listed as 0.8451.

Take “GLP1 V27A: single mutant analog of human GLP1”: the logIC50 in series [1] was 0.1461. Moreover, in series [2], the logEC50 was 0.301.

Regarding “GLP1 W25A: single mutant analog of human GLP1”, the logIC50 in series [1] is reported as 0.2041. For the same substance, in series [2], the logEC50 was 1.176.

In the case of “GLP1 Y13A: single mutant analog of human GLP1”, in series [1], the logIC50 was 0.5441. In series [2], the logEC50 is 1.74.
